The values that follow come from article PMC7145394, “Molecular and Low-Resolution Structural Characterization of the Na^+-Translocating Glutaconyl-CoA Decarboxylase From Clostridium symbiosum” (Frontiers in Microbiology, 2020).

Several values for one entry are separate records, joined by “and”; a condition that tells them apart may be missing. Equal entries are not always repeated.

Sequences and labels used below:
B2: GcdC1, biotin carrier subunit of glutaconyl-CoA decarboxylase (Gcd) from Clostridium symbiosum (natural protein, UniProt B7TVP4 1-149, looked up)
chain: MKYIATINGKRYEVEVERVEGYKSLDRNGVAAPKAPALASTAPVQRPAAPAPAAPAPAAAPAPAAAPAPVAAPAPAAAGATTVEAPMPGKVLDVKVTAGQVVKYGDVVAIMEAMKMETEIVAPADGTVSQILVKAGDPVDTGAAMVVLN
modifications: biotin covalently bound (C-terminal region)
notes: GcdC1, biotin carrier subunit of glutaconyl-CoA decarboxylase, Clostridium symbiosum, 15 kDa; N-terminal region of 30 amino acids, AP region of 48, C-terminal region of 71; Surmised: its biotin is what the monomeric avidin column holds
B3: GcdA, subunit of glutaconyl-CoA decarboxylase (Gcd) from Clostridium symbiosum (enzyme, UniProt B7TVP1 1-588, looked up)
chain: MNMYSMPGYFQNMPTIGKELVNPNPENEQEIKAVESDIHESIKKALDAGITSEEKLNERGQLSAMQRINALIDPGTWCPLNSLFNPENNKFGTTNIVNGLGRVDGKWVYIVASDNKKMAGAWVPGQAENLIRCSDAAKMMHLPLIYLLNCSGVEFPNQDKVYPNRRGGGTPFFRNSELNQLGIPVIVGIYGTNPAGGGYHSISPTILIAHQDANMAVGGAGILSGMNPKGYIDDEAAEQIIAAQIENSKLKVPAPGSVPIHYDETGFFREVYQNDLGVIDGIKKYISYLPAYNLEFFRVDTPKAPQLPAEDLYSIIPMNQKRPYDIYEVIARLFDNSEFSEYKKGYGPEMVTGLAKVNGLLVGVIANVQGLLMNYPEYKQNSVGIGGKLYRQGLIKMNEFVTLCARDRIPLIWLQDTTGIDVGDEAEKAELLGLGQSLIYSIENSKLPSLEITIRKASAAAHYVLGGPQGNNTNVFSIGTGACEYYVMPGETAANAMYSRKLVKAKKAGEDLQPIIGKMNDMIQMYTDKSRPKYCTEKGMVDEIVDMTEVRPYIQAFTEAAYQNPQSICPMHQMLTPRSTREFETFGK
notes: GcdA, hydrophilic carboxyltransferase subunit of glutaconyl-CoA decarboxylase, Clostridium symbiosum, 65 kDa; For LILBID-MS (soft mode) and EM the complex was cross-linked with glutaraldehyde (GraFix)
B4: GcdC2, biotin carrier subunit of glutaconyl-CoA decarboxylase (Gcd) from Clostridium symbiosum (natural protein, UniProt B7TVP3 1-139, looked up)
chain: MKYTATLNGKQYDVELERIGEYEPIPRYGEAAPAPAAPITAPAAAPAPVAAAPAPAPAPAAPAPAPAAGGTTVEAPMPGKVLDVKVAAGQAVKFGQVVITMEAMKMETEIVAPADGTVAQILVKAGDAVETGTAMVVLN
modifications: biotin covalently bound (C-terminal region)
notes: GcdC2, biotin carrier subunit of glutaconyl-CoA decarboxylase, Clostridium symbiosum, 14 kDa; N-terminal region of 30 amino acids, AP region of 39, C-terminal region of 70; Surmised: its biotin is what the monomeric avidin column holds

For data set [1], the target named is T1, Gcd (glutaconyl-CoA decarboxylase) from Clostridium symbiosum ([Clostridium] symbiosum, UniProt B7TVP1).
T1 construct: gene gcdA
The data set can be described thus: coupled spectrophotometric assay of crotonyl-CoA formation, […] nm. The following applies: decarboxylation to crotonyl-CoA; biotin-dependent, biotin covalently bound to GcdC1/GcdC2; DDM-solubilized enzyme. Format: biochemical.

Data set [2] concerns the molecule itself. As to the kind of experiment: negative-stain electron microscopy, 3D reconstruction; glutaraldehyde-fixed Gcd (50-80 nM) at 200 mM NaCl, stained with 2% uranyl formate; 2D classification and low-resolution 3D map (cisTEM, RELION-3.0).
For data set [3], the target named is B3. The data set can be described thus: affinity purification with mass spectrometry; Gcd solubilized from C. symbiosum membranes with 2% DDM in buffer A (50 mM phosphate pH 7.0, 400 mM NaCl, 0.05% DDM), loaded on monomeric avidin agarose, eluted with a biotin step gradient (0-2 mM); bands of SDS-PAGE identified by MALDI-TOF MS. The following applies: partners not purified.

Data set [4] deals with the molecule itself. The data set can be described thus: native MS; LILBID-MS, soft detection mode (14 mJ laser power); 3-7 uM glutaraldehyde-fixed and unconcentrated Gcd complex in 50 mM Tris-HCl pH 7.0, 0.05% DDM, 200 mM NaCl.
In data set [5] the target is B3. The data set is described as above. The following applies: both partners purified.
Data set [6] addresses B2. The description is as above. The following applies: both partners purified.
Data set [7] concerns the target B2. The data set can be described thus: affinity purification with mass spectrometry; Gcd solubilized from C. symbiosum membranes with 2% DDM in buffer A (50 mM phosphate pH 7.0, 400 mM NaCl, 0.05% DDM), loaded on monomeric avidin agarose, eluted with a biotin step gradient (0-2 mM); bands of SDS-PAGE identified by MALDI-TOF MS. The following applies: partners not purified.

In data set [8] the target is B4. The data set can be described thus: native MS; LILBID-MS, soft detection mode (14 mJ laser power); 3-7 uM glutaraldehyde-fixed and unconcentrated Gcd complex in 50 mM Tris-HCl pH 7.0, 0.05% DDM, 200 mM NaCl. The following applies: both partners purified.

One may read the stoichiometry N as a count of units in the complex or per binding partner.

For `CC(C)(COP(=O)(O)OP(=O)(O)OC[C@H]1O[C@@H](n2cnc3c(N)ncnc32)[C@H](O)[C@@H]1OP(=O)(O)O)[C@@H](O)C(=O)NCCC(=O)NCCSC(=O)/C=C/CC(=O)O` [glutaconyl-CoA], the “coupled spectrophotometric assay of crotonyl-CoA formation, 340 nm” value in data set [1] is “Purified Gcd was enzymatically active with respect to crotonyl-CoA formation”.

B1: GcdB, subunit of glutaconyl-CoA decarboxylase (Gcd) from Clostridium symbiosum (enzyme, UniProt B7TVP5 1-379, looked up)
chain: MNFFEIMGEMLAQSGFTALTWKNLVMFAISFVLLYMAIKKQYEPLLLLPIAFGMFLANLPLADLMKESEPWYTQGVLRIMYGGVKSSLFPCLIFLCVGAMTDFGPLIANPISLLLGAAAQFGIYIAFMLANATGLFTVGEAAAIGIIGGADGPTAIYIANNLAPDLVAPIAVAAYSYMALIPMIQPPIMKLLTTKKERAIVMKQLRKVSKVEKVVFPVFVVLFCSLLLPSVAPLLGMLMLGNLFRESGVVERLSDTAQNALCNIVTIMLGTTVGATANGDIFLRVQTIAIIAMGLMAFCFSTVGGVLLGKLLCVVTGGKINPLIGSAGVSAVPMAARVSQTVGSKENPTNFLLMHAMGPNVAGVIGSAVAAGFFMLIFK
notes: GcdB, membrane-spanning subunit (11 putative transmembrane helices) of glutaconyl-CoA decarboxylase, Clostridium symbiosum, 35 kDa (39 kDa in the introduction)
As for B1, the “stoichiometry N” value in data set [2] stood at 2.

For B2, the binding result in data set [3] is listed as “binds”.

Consider B3, for which the “stoichiometry N” value was approximately 4 in data set [2]; 4 and 2 in data set [4].

On to B4, for which the binding result in data set [5] and in data set [6] was “binds” throughout.

B5: GcdD, small subunit of glutaconyl-CoA decarboxylase (Gcd) from Clostridium symbiosum (natural protein, UniProt B7TVP2 1-95, looked up)
chain: MWTEATMPFGQSVIVSLLGISVVFITLVTLALAIVLISKILRSIIKDGAQKPAPAAAPVVSDEADKETLAVLMATIGMDLELPADQFKIVNVKEL
notes: GcdD, small subunit of glutaconyl-CoA decarboxylase, Clostridium symbiosum, 10 kDa; N-terminal transmembrane helix (13-37), AP-rich region (51-60), C-terminal region (61-95)
In the case of B5, the binding result in data set [7] and in data set [8] was “binds” throughout.
